Test results as given in patent US20250122285A1 (ANWITA BIOSCIENCES, published 2025).

Target: T1, CD122/CD132 heterodimer (human, UniProt P14784 27-239; P31785 23-262)
T1 construct: Bought from ACROBIO as 'AVT-TAG CD122/CD132 heterodimer'; also called AVT-TAG CD122/CD132 heterodimer; IL-2Rβ/γ complex
T1 sequence 1: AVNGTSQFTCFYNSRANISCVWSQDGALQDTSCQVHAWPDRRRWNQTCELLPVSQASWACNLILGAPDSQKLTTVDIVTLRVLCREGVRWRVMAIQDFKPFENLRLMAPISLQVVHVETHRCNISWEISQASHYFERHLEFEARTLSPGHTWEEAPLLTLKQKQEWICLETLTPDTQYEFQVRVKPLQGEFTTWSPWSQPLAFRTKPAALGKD
T1 sequence 2: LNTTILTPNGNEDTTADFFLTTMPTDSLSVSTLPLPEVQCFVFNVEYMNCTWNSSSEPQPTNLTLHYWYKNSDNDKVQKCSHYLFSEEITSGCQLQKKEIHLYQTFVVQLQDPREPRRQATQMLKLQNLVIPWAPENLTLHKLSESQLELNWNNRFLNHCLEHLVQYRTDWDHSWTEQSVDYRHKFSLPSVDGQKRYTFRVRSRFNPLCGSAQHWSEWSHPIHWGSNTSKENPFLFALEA
Test: BLI (OCTET RED96), receptor on biosensor, IL-2 in solution at 10-2,000 nM, 24 C
Procedure: OCTET® RED96 was used to characterize the interactions of wild-type hL-2 and hhL-2 muteins with CD25, CD122, or CD122/CD132 heterodimer. AVT-TAG CD122/CD132 heterodimer was purchased from ACROBIO. The protein samples were diluted in the OCTET® kinetic buffer. […] The biosensor was then dipped into a solution containing a wild-type hL-2 and IL-2 muteins at 10 to 2,000 nM at 24° C. The association and dissociation sensorgraph was fitted by global or local fitting using the OCTET® Data Analysis HT software.

Kd: 242 nM
B1: IL-2-IL-15 Chimera 65 (T3A, I92A, C125S, Q126E) (ligand)
chain: APASSSTKKTQLQLEHLLLDLQMILNGIQSMEIDATTFKFYMPKKATELKHLQCLEEELKPLEEVLNLAQSKNFHLRPRDLISNINVAVLELKGSETTFMCEYADETATIVEFLNRWITFSESIISTLT
